Positions count from the first letter of the chain named. Numbers in names are those of the source.
How the values were obtained:
[1] = molecular target: the molecule itself; test: negative-stain electron microscopy; purified co-expressed complex at 0.01-0.02 mg/mL in 25 mM HEPES pH 7.5, 150 mM NaCl, 1 mM TCEP, 10% glycerol; uranyl acetate stain; 2D classes and 3D map (C1, ~22 Å)
[2] = molecular target: T1, human glycogen synthase 1 (GS1) R603A (human, UniProt P13807 1-737, R603A, phosphorylation at S8, S641 and S641/S645 probed by immunoblot (Fig. 4b)); test: co-purification (HisTrap, TEV cleavage, Ni subtraction, Superdex200 gel filtration); GS WT or mutant co-expressed with GN(Y195F) in insect cells, both with N-terminal His6-TEV; lysate loaded on the HisTrap column; details: partners not purified
T1 construct: glycogen synthase 1 (muscle), human, encoded by GYS1, cDNA NM 002103; also called GS R603A; not shown: His6, N-terminal, cleaved
T1 sequence (looked up): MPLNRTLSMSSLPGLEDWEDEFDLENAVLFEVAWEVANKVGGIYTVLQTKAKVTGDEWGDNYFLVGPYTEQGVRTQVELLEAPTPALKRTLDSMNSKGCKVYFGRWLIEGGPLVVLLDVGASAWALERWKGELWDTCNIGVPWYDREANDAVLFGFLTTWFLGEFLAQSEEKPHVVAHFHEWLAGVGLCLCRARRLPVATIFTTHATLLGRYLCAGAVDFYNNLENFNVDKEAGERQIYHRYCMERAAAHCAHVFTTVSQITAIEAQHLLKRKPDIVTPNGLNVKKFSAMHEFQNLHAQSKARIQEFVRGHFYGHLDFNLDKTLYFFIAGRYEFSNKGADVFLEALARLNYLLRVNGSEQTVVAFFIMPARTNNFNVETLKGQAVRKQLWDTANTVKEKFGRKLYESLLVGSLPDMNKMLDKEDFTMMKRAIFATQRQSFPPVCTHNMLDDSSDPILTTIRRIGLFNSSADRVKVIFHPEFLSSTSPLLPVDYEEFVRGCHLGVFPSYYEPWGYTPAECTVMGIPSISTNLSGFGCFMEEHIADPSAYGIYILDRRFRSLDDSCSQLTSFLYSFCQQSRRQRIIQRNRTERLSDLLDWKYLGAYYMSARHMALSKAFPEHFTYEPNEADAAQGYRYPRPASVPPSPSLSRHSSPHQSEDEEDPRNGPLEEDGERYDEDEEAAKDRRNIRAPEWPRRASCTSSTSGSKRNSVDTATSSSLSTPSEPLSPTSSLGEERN

[3] = molecular target: T2, human glycogen synthase 1 (GS1) Y600A (human, UniProt P13807 1-737, Y600A, phosphorylation at S8, S641 and S641/S645 probed by immunoblot (Fig. 4b)); test: as above; details: partners not purified
T2 construct: glycogen synthase 1 (muscle), human, encoded by GYS1, cDNA NM 002103; also called GS Y600A; not shown: His6, N-terminal, cleaved
T2 sequence (looked up): T1 sequence (looked up) with Y600A, A603R

[4] = molecular target: T3, human glycogen synthase 1 (GS1) W18A (human, UniProt P13807 1-737, W18A, phosphorylation at S8, S641 and S641/S645 probed by immunoblot (Fig. 4b)); test: as above; details: partners not purified
T3 construct: glycogen synthase 1 (muscle), human, encoded by GYS1, cDNA NM 002103; also called GS W18A; not shown: His6, N-terminal, cleaved
T3 sequence (looked up): T1 sequence (looked up) with W18A, A603R

B1: human glycogenin 1 (GN1) Y195F, full length, non-glucosylated (enzyme, UniProt P46976-2 1-333, looked up)
chain: MTDQAFVTLTTNDAYAKGALVLGSSLKQHRTTRRLVVLATPQVSDSMRKVLETVFDEVIMVDVLDSGDSAHLTLMKRPELGVTLTKLHCWSLTQYSKCVFMDADTLVLANIDDLFDREELSAAPDPGWPDCFNSGVFVYQPSVETYNQLLHLASEQGSFDGGDQGILNTFFSSWATTDIRKHLPFIYNLSSISIFSYLPAFKVFGASAKVVHFLGRVKPWNYTYDPKTKSVKSEAHDPNMTHPEFLILWWNIFTTNVLPLLQQFGLVKDTCSYVNVEDVSGAISHLSLGEIPAMAQPFVSSEERKERWEQGQADYMGADSFDNIKRKLDTYLQ
notes: glycogenin 1, human, encoded by GYG1, cDNA NM 001184720, full length; expected ~37.5 kDa; the C-terminal GN34 region is modelled as residues 300-332, which fits the 333-residue isoform; Cloned in pFL (with untagged GS) and in pFastBac (co-infected with His6-TEV-GS WT or mutants); Both carry an N-terminal His6 tag and a cleavable site, so they are treated as one molecule; also called GN(Y195F); GN …
stoichiometry N [1]: 2 | binding result [2]: binds | binding result [3]: binds | binding result [4]: binds
